Here are results for 28 substances from the supplement of paper PMC5998384.

Series [1] concerns HeLa Kyoto. The experiment in a line: solubility change mitosis vs G1/S (difference of NP-40 vs SDS log2 ratios) (log2 ratio difference); higher = more soluble in mitosis.
For series [2], the system named is HeLa Kyoto. The experiment in a line: melting temperature (median over replicates), in situ; higher = more thermally stable.
For series [3], the system named is HeLa Kyoto. In words: thermal stability score vs G1/S (z-score of summed log2 fold changes over temperatures); higher = more thermally stable than in G1/S.
Setting [4] is: cell cycle stage: early G1 (4.5 h after nocodazole release).
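For melting temperature (median over replicates), in situ in this document: HeLa Kyoto cells synchronized by double thymidine or nocodazole block, proteins quantified by TMT10plex mass spectrometry, three independent biological replicates.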
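For solubility change mitosis vs G1/S (difference of NP-40 vs SDS log2 ratios) in this document: synchronized HeLa Kyoto cells (double thymidine block for G1/S, nocodazole release for mitosis), protein amounts in NP-40 versus SDS lysates quantified by mass spectrometry, three biological replicates.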
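For thermal stability score vs G1/S (z-score of summed log2 fold changes over temperatures) in this document: synchronized HeLa Kyoto cells, proteins quantified by TMT10plex mass spectrometry, three biological replicates, mitosis taken 0.5 h after nocodazole release, G1/S directly after double thymidine block.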

ACACA: the “solubility change mitosis (log2)” value with HeLa Kyoto [1] was -0.227. On the same count and under the same terms, as for ACADSB, the figure is -0.0159. Consider ALYREF, for which, in the series on HeLa Kyoto [1], the “solubility change mitosis (log2)” value worked out at 0.776.

For the substance ARPC3, the “solubility change mitosis (log2)” value in the series on HeLa Kyoto [1] amounted to 0.222. For ARPC4, in the series on HeLa Kyoto [1], the “solubility change mitosis (log2)” value is -0.115. The same measure, in the same setting: as for CAMKMT, the figure is 0.137; as for CAPZA1, -0.0799; as for CTBP1, -0.0691. Same read-out and setting: the value for DAP3 was -0.0659; that for DDA1 was 0.3. Still for that read-out and setting: the value for FMR1 was 0.261; that for GNB2L1 was 0.272; that for GOPC was -0.0477. As to INPP4A, the “solubility change mitosis (log2)” value in the series on HeLa Kyoto [1] is -0.0329. The same measure, in the same setting: the value for KIAA0907 was 0.046; that for KIAA1524 was -0.103.

Turning to KPNA2, the “solubility change mitosis (log2)” value with HeLa Kyoto [1] came to 0.136. As for LEO1, the “solubility change mitosis (log2)” value in the series on HeLa Kyoto [1] is -0.0441. As to “MGLPALEFSDCCLDSPHFRETLKSHEAELDKTNKFIKELIKDGKSLISALKNLSSAKRKFADSLNEFKFQCIGDAETDDEMCIARSLQEFATVLRNLEDERIRMIENASEVLITPLEKFRKEQIGAAKEAKKKYDKETEKYCGILEKHLNLSSKKKESQLQEADSQVDLVRQHFYEVSLEYVFKVQEVQERKMFEFVEPLLAFLQGLFTFYHHGYELAKDFGDFKTQLTISIQNTRNRFEGTRSEVESLMKKMKENPLEHKTISPYTMEGYLYVQEKRHFGTSWVKHYCTYQRDSKQITMVPFDQKSGGKGGEDESVILKSCTRRKTDSIEKRFCFDVEAVDRPGVITMQALSEEDRRLWMEAMDGREPVYNSNKDSQSEGTAQLDSIGFSIIRKCIHAVETRGINEQGLYRIVGVNSRVQKLLSVLMDPKTASETETDICAEWEIKTITSALKTYLRMLPGPLMMYQFQRSFIKAAKLENQESRVSEIHSLVHRLPEKNRQMLQLLMNHLANVANNHKQNLMTVANLGVVFGPTLLRPQEETVAAIMDIKFQNIVIEILIENHEKIFNTVPDMPLTNAQLHLSRKKSSDSKPPSCSERPLTLFHTVQSTEKQEQRNSIINSSLESVSSNPNSILNSSSSLQPNMNSSDPDLAVVKPTRPNSLPPNPSPTSPLSPSWPMFSAPSSPMPTSSTSSDSSPVRSVAGFVWFSVAAVVLSLARSSLHAVFSLLVNFVPCHPNLHLLFDRPEEAVHEDSSTPFRKAKALYACKAEHDSELSFTAGTVFDNVHPSQEPGWLEGTLNGKTGLIPENYVEFL [ARHGAP26]”, the melting temperature in the series with HeLa Kyoto [2] (cell cycle stage: mitosis) was found to be 52 °C. The thermal stability score in the series on HeLa Kyoto [3] (setting [4]) was -0.227; in the series with HeLa Kyoto [3] (cell cycle stage: mitosis) it was -0.147.

For the substance “MGRSRSRSPRRERRRSRSTSRERERRRRERSRSRERDRRRSRSRSPHRRRSRSPRRHRSTSPSPSRLKERRDEEKKETKETKSKERQITEEDLEGKTEEEIEMMKLMGFASFDSTKGKKVDGSVNAYAINVSQKRKYRQYMNRKGGFNRPLDFIA [SNRNP27]”, the values for the melting temperature with HeLa Kyoto [2] (cell cycle stage: G1/S) and in the series on HeLa Kyoto [2] (cell cycle stage: mitosis) were 54 °C and 53.3 °C, respectively. Besides, the thermal stability score turned out to be 1.03 with HeLa Kyoto [3] (setting [4]) and 0.903 in the series with HeLa Kyoto [3] (cell cycle stage: mitosis). As for “MGSQEVLGHAARLASSGLLLQVLFRLITFVLNAFILRFLSKEIVGVVNVRLTLLYSTTLFLAREAFRRACLSGGTQRDWSQTLNLLWLTVPLGVFWSLFLGWIWLQLLEVPDPNVVPHYATGVVLFGLSAVVELLGEPFWVLAQAHMFVKLKVIAESLSVILKSVLTAFLVLWLPHWGLYIFSLAQLFYTTVLVLCYVIYFTKLLGSPESTKLQTLPVSRITDLLPNITRNGAFINWKEAKLTWSFFKQSFLKQILTEGERYVMTFLNVLNFGDQGVYDIVNNLGSLVARLIFQPIEESFYIFFAKVLERGKDATLQKQEDVAVAAAVLESLLKLALLAGLTITVFGFAYSQLALDIYGGTMLSSGSGPVLLRSYCLYVLLLAINGVTECFTFAAMSKEEVDRYNFVMLALSSSFLVLSYLLTRWCGSVGFILANCFNMGIRITQSLCFIHRYYRRSPHRPLAGLHLSPVLLGTFALSGGVTAVSEVFLCCEQGWPARLAHIAVGAFCLGATLGTAFLTETKLIHFLRTQLGVPRRTDKMT [RFT1]”, the melting temperature with HeLa Kyoto [2] (cell cycle stage: G1/S) was 57.1 °C; with HeLa Kyoto [2] (cell cycle stage: mitosis), 56.9 °C. The thermal stability score with HeLa Kyoto [3] (setting [4]) was -1.46; in the series on HeLa Kyoto [3] (cell cycle stage: mitosis), -1.12. As for “MGVNAVHWFRKGLRLHDNPALKECIQGADTIRCVYILDPWFAGSSNVGINRWRFLLQCLEDLDANLRKLNSRLFVIRGQPADVFPRLFKEWNITKLSIEYDSEPFGKERDAAIKKLATEAGVEVIVRISHTLYDLDKIIELNGGQPPLTYKRFQTLISKMEPLEIPVETITSEVIEKCTTPLSDDHDEKYGVPSLEELGFDTDGLSSAVWPGGETEALTRLERHLERKAWVANFERPRMNANSLLASPTGLSPYLRFGCLSCRLFYFKLTDLYKKVKKNSSPPLSLYGQLLWREFFYTAATNNPRFDKMEGNPICVQIPWDKNPEALAKWAEGRTGFPWIDAIMTQLRQEGWIHHLARHAVACFLTRGDLWISWEEGMKVFEELLLDADWSINAGSWMWLSCSSFFQQFFHCYCPVGFGRRTDPNGDYIRRYLPVLRGFPAKYIYDPWNAPEGIQKVAKCLIGVNYPKPMVNHAEASRLNIERMKQIYQQLSRYRGLGLLASVPSNPNGNGGFMGYSAENIPGCSSSGSCSQGSGILHYAHGDSQQTHLLKQGRSSMGTGLSGGKRPSQEEDTQSIGPKVQRQSTN [CRY1]”, in the series on HeLa Kyoto [2] (cell cycle stage: mitosis), the melting temperature worked out at 52 °C. Moreover, the thermal stability score in the series on HeLa Kyoto [3] (setting [4]) was 0.298; in the series with HeLa Kyoto [3] (cell cycle stage: mitosis), -0.281. For the substance “MIKAILIFNNHGKPRLSKFYQPYSEDTQQQIIRETFHLVSKRDENVCNFLEGGLLIGGSDNKLIYRHYATLYFVFCVDSSESELGILDLIQVFVETLDKCFENVCELDLIFHVDKVHNILAEMVMGGMVLETNMNEIVTQIDAQNKLEKSEAGLAGAPARAVSAVKNMNLPEIPRNINIGDISIKVPNLPSFK [AP3S1]”, the melting temperature with HeLa Kyoto [2] (cell cycle stage: G1/S) was found to be 50.8 °C; with HeLa Kyoto [2] (cell cycle stage: mitosis), 51.2 °C. In addition, the thermal stability score with HeLa Kyoto [3] (setting [4]) is -0.187; in the series with HeLa Kyoto [3] (cell cycle stage: mitosis), -0.378. For “MLKPALEPRGGFSFENCQRNASLERVLPGLKVPHARKTGTTIAGLVFQDGVILGADTRATNDSVVADKSCEKIHFIAPKIYCCGAGVAADAEMTTRMVASKMELHALSTGREPRVATVTRILRQTLFRYQGHVGASLIVGGVDLTGPQLYGVHPHGSYSRLPFTALGSGQDAALAVLEDRFQPNMTLEAAQGLLVEAVTAGILGDLGSGGNVDACVITKTGAKLLRTLSSPTEPVKRSGRYHFVPGTTAVLTQTVKPLTLELVEETVQAMEVE [PSMB10]”, in that order: 53.3 °C, 52.6 °C, 0.227 and 0.56. The substance “MREIVHLQAGQCGNQIGAKFWEVISDEHGIDPTGTYHGDSDLQLERINVYYNEATGGKYVPRAVLVDLEPGTMDSVRSGPFGQIFRPDNFVFGQSGAGNNWAKGHYTEGAELVDSVLDVVRKEAESCDCLQGFQLTHSLGGGTGSGMGTLLISKIREEYPDRIMNTFSVVPSPKVSDTVVEPYNATLSVHQLVENTDETYCIDNEALYDICFRTLKLTTPTYGDLNHLVSATMSGVTTCLRFPGQLNADLRKLAVNMVPFPRLHFFMPGFAPLTSRGSQQYRALTVPELTQQMFDAKNMMAACDPRHGRYLTVAAVFRGRMSMKEVDEQMLNVQNKNSSYFVEWIPNNVKTAVCDIPPRGLKMSATFIGNSTAIQELFKRISEQFTAMFRRKAFLHWYTGEGMDEMEFTEAESNMNDLVSEYQQYQDATAEEEGEFEEEAEEEVA [TUBB4B]” returned a melting temperature with HeLa Kyoto [2] (cell cycle stage: mitosis) of 54.4 °C. Besides, the thermal stability score is 0.304 in the series on HeLa Kyoto [3] (setting [4]) and -1.31 in the series with HeLa Kyoto [3] (cell cycle stage: mitosis). With “MSGGRAPAVLLGGVASLLLSFVWMPALLPVASRLLLLPRVLLTMASGSPPTQPSPASDSGSGYVPGSVSAAFVTCPNEKVAKEIARAVVEKRLAACVNLIPQITSIYEWKGKIEEDSEVLMMIKTQSSLVPALTDFVRSVHPYEVAEVIALPVEQGNFPYLQWVRQVTESVSDSITVLP [CUTA]”, the melting temperature in the series with HeLa Kyoto [2] (cell cycle stage: G1/S) came to 57.7 °C; in the series on HeLa Kyoto [2] (cell cycle stage: mitosis) it was 54.8 °C. Further, the thermal stability score in the series with HeLa Kyoto [3] (setting [4]) was -1.46; with HeLa Kyoto [3] (cell cycle stage: mitosis), -1.38. “MSGTRASNDRPPGAGGVKRGRLQQEAAATGSRVTVVLGAQWGDEGKGKVVDLLATDADIISRCQGGNNAGHTVVVDGKEYDFHLLPSGIINTKAVSFIGNGVVIHLPGLFEEAEKNEKKGLKDWEKRLIISDRAHLVFDFHQAVDGLQEVQRQAQEGKNIGTTKKGIGPTYSSKAARTGLRICDLLSDFDEFSSRFKNLAHQHQSMFPTLEIDIEGQLKRLKGFAERIRPMVRDGVYFMYEALHGPPKKILVEGANAALLDIDFGTYPFVTSSNCTVGGVCTGLGIPPQNIGDVYGVVKAYTTRVGIGAFPTEQINEIGGLLQTRGHEWGVTTGRKRRCGWLDLMILRYAHMVNGFTALALTKLDILDVLGEVKVGVSYKLNGKRIPYFPANQEMLQKVEVEYETLPGWKADTTGARRWEDLPPQAQNYIRFVENHVGVAVKWVGVGKSRESMIQLF [ADSSL1]”: the melting temperature was 55.3 °C in the series with HeLa Kyoto [2] (cell cycle stage: G1/S) and 55.4 °C in the series on HeLa Kyoto [2] (cell cycle stage: mitosis). Besides, the thermal stability score in the series with HeLa Kyoto [3] (setting [4]) was -1.69; with HeLa Kyoto [3] (cell cycle stage: mitosis), -2.13. On the same counts, the results for MYH14 are 53.1 °C, 52.2 °C, -0.174 and -1.24.
